These results are taken from IntAct's records for PubMed 19680263.

To fix the notation:
B1: Complement factor H (Homo sapiens), P08603 (parent)
chain: MRLLAKIICLMLWAICVAEDCNELPPRRNTEILTGSWSDQTYPEGTQAIYKCRPGYRSLGNVIMVCRKGEWVALNPLRKCQKRPCGHPGDTPFGTFTLTGGNVFEYGVKAVYTCNEGYQLLGEINYRECDTDGWTNDIPICEVVKCLPVTAPENGKIVSSAMEPDREYHFGQAVRFVCNSGYKIEGDEEMHCSDDGFWSKEKPKCVEISCKSPDVINGSPISQKIIYKENERFQYKCNMGYEYSERGDAVCTESGWRPLPSCEEKSCDNPYIPNGDYSPLRIKHRTGDEITYQCRNGFYPATRGNTAKCTSTGWIPAPRCTLKPCDYPDIKHGGLYHENMRRPYFPVAVGKYYSYYCDEHFETPSGSYWDHIHCTQDGWSPAVPCLRKCYFPYLENGYNQNYGRKFVQGKSIDVACHPGYALPKAQTTVTCMENGWSPTPRCIRVKTCSKSSIDIENGFISESQYTYALKEKAKYQCKLGYVTADGETSGSITCGKDGWSAQPTCIKSCDIPVFMNARTKNDFTWFKLNDTLDYECHDGYESNTGSTTGSIVCGYNGWSDLPICYERECELPKIDVHLVPDRKKDQYKVGEVLKFSCKPGFTIVGPNSVQCYHFGLSPDLPICKEQVQSCGPPPELLNGNVKEKTKEEYGHSEVVEYYCNPRFLMKGPNKIQCVDGEWTTLPVCIVEESTCGDIPELEHGWAQLSSPPYYYGDSVEFNCSESFTMIGHRSITCIHGVWTQLPQCVAIDKLKKCKSSNLIILEEHLKNKKEFDHNSNIRYRCRGKEGWIHTVCINGRWDPEVNCSMAQIQLCPPPPQIPNSHNMTTTLNYRDGEKVSVLCQENYLIQEGEEITCKDGRWQSIPLCVEKIPCSQPPQIEHGTINSSRSSQESYAHGTKLSYTCEGGFRISEENETTCYMGKWSSPPQCEGLPCKSPPEISHGVVAHMSDSYQYGEEVTYKCFEGFGIDGPAIAKCLGEKWSHPPSCIKTDCLSLPSFENAIPMGEKKDVYKAGEQVTYTCATYYKMDGASNVTCINSRWTGRPTCRDTSCVNPPTVQNAYIVSRQMSKYPSGERVRYQCRSPYEMFGDEEVMCLNGNWTEPPQCKDSTGKCGPPPPIDNGDITSFPLSVYAPASSVEYQCQNLYQLEGNKRITCRNGQWSEPPKCLHPCVISREIMENYNIALRWTAKQKLYSRTGESVEFVCKRGYRLSSRSHTLRTTCWDGKLEYPTCAKR
partner: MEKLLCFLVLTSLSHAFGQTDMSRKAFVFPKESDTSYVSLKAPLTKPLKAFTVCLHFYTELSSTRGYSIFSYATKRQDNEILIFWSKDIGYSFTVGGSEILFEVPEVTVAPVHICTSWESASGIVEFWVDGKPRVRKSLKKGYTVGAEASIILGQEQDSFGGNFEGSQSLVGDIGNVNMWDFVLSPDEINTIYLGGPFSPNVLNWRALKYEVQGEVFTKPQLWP

The first test covers variants of B1. To be noted: with crp_human CRP.
Regarding R1203E;R1206E;R1210S;K1230S;R1231A, the “effect of a mutation on the interaction” value is reported as “disrupting interaction strength”.

Variants of B1 are the subject of the next test. To be noted: with crp_human CRP. This is another data set of the same source.
As to R1203E;R1206E;R1210S;K1230S;R1231A, the “effect of a mutation on the interaction” value was “disrupting interaction strength”.

The next test covers variants of B1. To be noted: with crp_human CRP. This is another data set of the same source.
Take R1210C: the “effect of a mutation on the interaction” value is on record as “decreasing interaction strength”.
On the same count and under the same terms, the value for R1215G was “decreasing interaction strength”; that for V1197A was “decreasing interaction strength”; that for W1183L was “decreasing interaction strength”.
